Experiment in all cases: peptide or protein array; Peptides immobilised through the N-terminus (Tds spacer) on glass slides (JPT), nine spots per peptide; recombinant ligand 400 nM to 1 uM in PBS/0.05% Tween-20 with 5% BSA, 2 h at room temperature then overnight at 4 °C; detected with anti-HA plus anti-GST and Cy5-labelled secondary antibodies; background of a FLAG peptide subtracted
Common to all, as to conditions: both partners purified

Test [1] has as its target T1, GST-HA-ATG16L1-320–607 (recombinant WD40 domain fused to GST and the HA tag) (human, UniProt Q676U5 320-607).
T1 construct: source: E. coli BL21 (pGEX), purified (GSH-agarose, eluted with reduced GSH)

The target of test [2] is T2, GST-HA-ATG16L1-231–607 A300, purified from human cells (human, UniProt Q676U5 231-607, T300A).
T2 construct: source: HEK-293T, retrovirally transduced, purified (GSH-agarose)

For test [3], the target named is T3, GST-HA-ATG16L1-231–607 T300, purified from human cells (human, UniProt Q676U5 231-607).
T3 construct: source: HEK-293T, retrovirally transduced, purified (GSH-agarose)

Ends that are not written are not given here. Tds = not defined here

The values below come from paper PMC4899871, “The T300A Crohn's disease risk polymorphism impairs function of the WD40 domain of ATG16L1” (Nature Communications, 2016).

T3 sequence (Q676U5 231-607): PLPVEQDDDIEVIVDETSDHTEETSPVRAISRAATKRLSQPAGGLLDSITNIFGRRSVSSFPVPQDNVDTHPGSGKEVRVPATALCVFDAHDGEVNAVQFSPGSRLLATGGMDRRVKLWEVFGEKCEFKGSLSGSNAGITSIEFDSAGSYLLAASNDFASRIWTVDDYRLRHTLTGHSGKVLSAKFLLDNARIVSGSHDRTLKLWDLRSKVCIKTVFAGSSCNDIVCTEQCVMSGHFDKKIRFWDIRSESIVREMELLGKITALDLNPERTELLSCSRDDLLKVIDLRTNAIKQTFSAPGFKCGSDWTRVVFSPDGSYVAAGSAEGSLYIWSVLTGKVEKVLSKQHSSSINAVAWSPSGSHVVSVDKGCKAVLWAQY
T1 sequence (Q676U5 320-607): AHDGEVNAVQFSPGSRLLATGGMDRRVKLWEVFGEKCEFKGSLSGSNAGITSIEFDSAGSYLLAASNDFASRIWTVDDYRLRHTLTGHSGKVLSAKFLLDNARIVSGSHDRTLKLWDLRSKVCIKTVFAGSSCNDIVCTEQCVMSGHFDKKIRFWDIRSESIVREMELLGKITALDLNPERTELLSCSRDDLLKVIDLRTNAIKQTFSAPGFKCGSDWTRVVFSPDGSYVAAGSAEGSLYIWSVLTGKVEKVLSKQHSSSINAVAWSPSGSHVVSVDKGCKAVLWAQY
T2 sequence (Q676U5 231-607 T300A): as the sequence (Q676U5 231-607) above, with T70A counted along it

B1: TMEM59 263–281 peptide, wild type (19-amino acid peptide that includes the ATG16L1-binding motif) (peptide, UniProt Q9BXS4 263-281, looked up)
peptide: Tds-TAVEQYVPSEKLSIYGDLE
modifications: not fully specified; reading uncertain
notes: TMEM59 residues 263-281 of the intracellular domain; also called WT peptide; native peptide; source: synthetic peptide on microarray, bought: JPT (Germany)
Consider B1, for which the binding result in test [1], in test [2] and in test [3] was “binds” in each case.

B2: TMEM59 263–281 peptide E272A (peptide, UniProt Q9BXS4 263-281, looked up)
peptide: Tds-TAVEQYVPSAKLSIYGDLE
modifications: reading uncertain
notes: TMEM59 residues 263-281 with E272A; source: synthetic peptide on microarray, bought: JPT (Germany)
Regarding B2, in test [3], the binding result is given as “binds”.
